Reference: IntAct's records for PubMed 31262713

B1: Protein Niban 2 (Homo sapiens), Q96TA1 (parent)
chain: MGDVLSTHLDDARRQHIAEKTGKILTEFLQFYEDQYGVALFNSMRHEIEGTGLPQAQLLWRKVPLDERIVFSGNLFQHQEDSKKWRNRFSLVPHNYGLVLYENKAAYERQVPPRAVINSAGYKILTSVDQYLELIGNSLPGTTAKSGSAPILKCPTQFPLILWHPYARHYYFCMMTEAEQDKWQAVLQDCIRHCNNGIPEDSKVEGPAFTDAIRMYRQSKELYGTWEMLCGNEVQILSNLVMEELGPELKAELGPRLKGKPQERQRQWIQISDAVYHMVYEQAKARFEEVLSKVQQVQPAMQAVIRTDMDQIITSKEHLASKIRAFILPKAEVCVRNHVQPYIPSILEALMVPTSQGFTEVRDVFFKEVTDMNLNVINEGGIDKLGEYMEKLSRLAYHPLKMQSCYEKMESLRLDGLQQRFDVSSTSVFKQRAQIHMREQMDNAVYTFETLLHQELGKGPTKEELCKSIQRVLERVLKKYDYDSSSVRKRFFREALLQISIPFLLKKLAPTCKSELPRFQELIFEDFARFILVENTYEEVVLQTVMKDILQAVKEAAVQRKHNLYRDSMVMHNSDPNLHLLAEGAPIDWGEEYSNSGGGGSPSPSTPESATLSEKRRRAKQVVSVVQDEEVGLPFEASPESPPPASPDGVTEIRGLLAQGLRPESPPPAGPLLNGAPAGESPQPKAAPEASSPPASPLQHLLPGKAVDLGPPKPSDQETGEQVSSPSSHPALHTTTEDSAGVQTEF

Experiments:
[1] = variants of: B1; settings: with keap1_human KEAP1, Q14145
[2] = variants of: B1; settings: with keap1_human KEAP1, Q14145; remark: listed apart in the source

keap1_human KEAP1, Q14145, sequence (Q14145 whole entry): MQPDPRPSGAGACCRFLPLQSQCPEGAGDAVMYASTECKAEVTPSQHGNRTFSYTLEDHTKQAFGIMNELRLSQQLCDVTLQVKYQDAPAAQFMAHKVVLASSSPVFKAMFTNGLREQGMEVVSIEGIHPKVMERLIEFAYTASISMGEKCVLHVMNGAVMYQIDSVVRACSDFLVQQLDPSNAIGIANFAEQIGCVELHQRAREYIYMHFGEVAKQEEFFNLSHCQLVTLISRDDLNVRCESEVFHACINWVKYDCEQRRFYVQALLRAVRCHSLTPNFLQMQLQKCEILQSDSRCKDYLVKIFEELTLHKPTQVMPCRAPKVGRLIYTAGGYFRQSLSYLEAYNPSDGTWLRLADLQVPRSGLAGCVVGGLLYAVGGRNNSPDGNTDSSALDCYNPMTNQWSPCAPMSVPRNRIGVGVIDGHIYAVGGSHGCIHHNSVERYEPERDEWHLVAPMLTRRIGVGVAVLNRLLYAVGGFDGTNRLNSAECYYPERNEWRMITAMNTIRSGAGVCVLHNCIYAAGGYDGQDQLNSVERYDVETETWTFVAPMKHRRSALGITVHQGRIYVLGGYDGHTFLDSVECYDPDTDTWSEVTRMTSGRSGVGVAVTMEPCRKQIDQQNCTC

Variant | effect of a mutation on the interaction [1] | effect of a mutation on the interaction [2]
G710A | with no effect | disrupting interaction strength
G710A;E718A;T719A | disrupting interaction strength | disrupting interaction strength
E718A;T719A | disrupting interaction strength | 
